# Reference: US11653679B2, “High-purity steviol glycosides” (PureCircle Sdn Bhd, priority 2014, dated 2023)
# Tests used:
# Assay type in all cases: biochemical
# [1] = Transformation of Stevioside to Rebaudioside A with UGT76G1 lysate (Examples 4, 13), HPLC; conditions: in-vivo produced UGT76G1 thawed lysate, 0.5 mM Stevioside, 30° C., HPLC (CAD)
# Protocol: The total volume of the reaction was 5.0 mL with the following composition: 50 mM sodium phosphate buffer pH 7.2, 3 mM MgCl2, 2.5 mM UDP-glucose, 0.5 mM Stevioside and 500 μl, of UGT76G1 thawed lysate. The reactions were run at 30° C. on an orbitary shaker at 135 rpm. For each sample, 460 μL of the reaction mixture was quenched with 40 μL of 2N H2SO4 and 420 μL of methanol/water (6/4). The samples were immediately centrifuged and kept at 10° C. before analysis by HPLC (CAD).
# (§1) Activity tests were performed on a 5 mL scale with 500 μL of thawed lysate for the transformation of Stevioside to Rebaudioside A and Rebaudioside D to Rebaudioside M using 0.5 mM of substrate, 2.5 mM of UDP-Glucose and 3 mM MgCl2 in 50 mM Sodium Phosphate buffer at pH 7.2. Samples were taken and analyzed by HPLC.
# [2] = Transformation of Rebaudioside D to Rebaudioside M with UGT76G1 (Examples 6, 13), HPLC; conditions: after 120 h, in-vitro produced UGT76G1, 0.5 mM Rebaudioside D, 30° C.
# Protocol: The total volume of the reaction was 2 mL with the following composition: 50 mM sodium phosphate buffer pH 7.2, 3 mM MgCl2, 3.8 mM UDP-glucose, 0.5 mM Rebaudioside D and 180 μL of in-vitro produced UGT76G1. The reactions were run at 30° C. on an orbitary shaker at 135 rpm. For each sample, 400 μL of reaction mixture was quenched with 40 μL of 2N H2SO4 and 360 μL of 60% MeOH. After centrifugation, the supernatant was analyzed by HPLC (CAD).
# as §1
# [3] = Conversion of Rebaudioside E to Rebaudioside D with UGT76G1 lysate (Example 25); conditions: UGT76G1 thawed lysate, 0.5 mM Rebaudioside E, pH 7.5, 30° C.
# Protocol: The total volume of the reaction was 5.0 mL with the following composition: 100 mM potassium phosphate buffer pH 7.5, 3 mM MgCl2, 2.5 mM UDP-glucose, 0.5 mM Rebaudioside E and 500 μL of UGT76G1 thawed lysate (UGT76G1 gene was cloned in pET30a+ vector and expressed in E. coli BL21 (DE3)). The reactions were run at 30° C. on an orbitary shaker at 135 rpm. For sampling 300 μL of the reaction mixture was quenched with 30 μL of 2N H2SO4 and 270 μL of methanol/water (6/4). The samples were immediately centrifuged and kept at 10° C. before analysis by HPLC (CAD detection).
# [4] = Activity for Stevioside to Rebaudioside E conversion with UGTSL, UGTSL2, UGTLB (Examples 28, 32); conditions: reaction time UGTSL 22 h., UGTSL2 2 h., 600 μL lysate, based on initial concentration of Stevioside
# Protocol: (§2) Activity tests were performed at 3 mL scale with 600 μL of lysate for the transformation of Stevioside using 0.5 mM of substrate, 2.5 mM of UDP-Glucose and 3 mM MgCl2 in 50 mM Sodium Phosphate buffer at pH 7.2. Samples were taken and analyzed by HPLC. HPLC Analysis. The HPLC assay was performed as described in EXAMPLE 20.
# as §2, with “HPLC.” for “HPLC. HPLC Analysis.”, “corresponding chromatograms are depicted” for “HPLC assay was performed as described”, “FIG. 63a.” for “EXAMPLE 20.”
# [5] = Activity for Rubusoside to Rebaudioside E conversion with UGTSL, UGTSL2, UGTLB (Examples 29, 32); conditions: reaction time UGTSL 45 h., UGTSL2 2 h., 600 μL lysate, based on initial concentration of Rubusoside
# Protocol: as §2, with “Rubusoside” for “Stevioside”, “HPLC.” for “HPLC. HPLC Analysis.”
# (§3) Activity tests were performed at 3 mL scale with 600 μL of lysate for the transformation of Rubusoside using 0.5 mM of substrate, 2.5 mM of UDP-Glucose and 3 mM MgCl2 in 50 mM Sodium Phosphate buffer at pH 7.2. Samples were taken and analyzed by HPLC. The corresponding chromatograms are depicted in FIG. 63b.
# [6] = Activity for Rebaudioside A to Rebaudioside D conversion with UGTSL2, UGTLB (Examples 30, 32); conditions: 23 h., 60 μL lysate, based on initial concentration of Rebaudioside A
# Protocol: as §2, with “60” for “600”, “Rebaudioside A” for “Stevioside”, “HPLC.” for “HPLC. HPLC Analysis.”
# as §3, with “Rebaudioside A” for “Rubusoside”, “chromatogram after 23 h. of reaction is” for “chromatograms are”, “63c.” for “63b.”
# [7] = Rubusoside conversion products with UGTSL, UGTSL2, UGTLB by LCMS (Example 33); conditions: reaction time UGTSL2 2 hrs, UGTLB 5 hrs, UGTSL 45 hrs
# Protocol: (§4) Conversion of stevioside with UGTSL and UGTSL2 was conducted in similar manner to Example 28, and the conversion of rubusoside with UGTSL and UGTSL2 was conducted similarly to Example 29. Conversions of rubusoside and stevioside with UGTLB was conducted similarly to Example 32.
# (§5) The reaction mixtures were analyzed by LCMS to determine all reaction products.
# [8] = Stevioside conversion products with UGTSL, UGTSL2, UGTLB by LCMS (Example 33); conditions: reaction time UGTSL2 2 hrs, UGTLB 2 hrs, UGTSL 22 hrs
# Protocol: as §4, §5
# [9] = Directed evolution of UGTSL2, Rebaudioside A to Rebaudioside D, round 1 (Example 45)
# Protocol: Lysis was performed by addition of Bugbuster® Master mix (Novagen®) to the thawed cells and the lysate was recovered by centrifugation. […]
# The reaction was allowed to run at 30° C. and samples were taken after 2, 4, 6 and 22 h. to determine the initial rate by HPLC (CAD detection) using the analytical method that was described above for the transformation of Rebaudioside A to Rebaudioside D. In parallel the experiments were performed with baseline clone, UGTSL2. The initial rate for this baseline clone was defined as 100%. As an indication of the specificity of the clones, Rebaudioside M2 content was determined at 100% UDP-Glucose conversion and Rebaudioside D2 content was determined at 50% UDP-Glucose conversion. Wherein UDP glucose conversion is defined as: ([Reb D]/[Reb A]0)+([Reb D2]/[Reb A]0)+2*([Reb M2]/[Reb A]0).
# The normalized initial rate, Rebaudioside M2 content at 100% UDP-glucose conversion and Rebaudioside D2 content at 50% UDP-glucose conversion are depicted in the following table
# [10] = Directed evolution of UGTSL2 round 2, initial rate for Rebaudioside A conversion (Example 48); conditions: UGTSL2 round 2 clone lysates, 0.5 mM Rebaudioside A, 30° C., pH 7.2; baseline clone UGTSL2 defined as 100%
# Protocol: (§6) In order to measure the activity of the variants for the transformation of Rebaudioside A to Rebaudioside D, 100 μL of fresh lysate was added to a solution of Rebaudioside A (final concentration 0.5 mM), MgCl2 (final concentration 3 mM) and UDP-Glucose (final concentration 2.5 mM) in 50 mM phosphate buffer pH 7.2. The reaction was allowed to run at 30° C. and samples were taken after 2, 4, 6 and 22 h. to determine the initial rates after HPLC analysis (CAD detection) using the analytical method that was described above for the transformation of Rebaudioside A to Rebaudioside D.
# (§7) Apart from the new variants, both experiments were also performed with baseline clone, UGTSL2. The initial rates for the conversion of Rebaudioside A or Rebaudioside D for this baseline clone were defined as 100%.
# (§8) Activity of each clone was defined as normalized activity compared to baseline clone UGTSL2 whereas specificity of each clone was expressed as the ratio between the initial rates for the conversion of Rebaudioside A and Rebaudioside D.
# [11] = Directed evolution of UGTSL2 round 2, initial rate for Rebaudioside D conversion (Example 48); conditions: UGTSL2 round 2 clones; specificity
# Protocol: The reaction was allowed to run at 30° C. and samples were taken after 2, 4, 6 and 22 h. to determine the initial rates for Rebaudioside D conversion after HPLC analysis (CAD detection).
# as §7, §8
# [12] = Directed evolution of UGTSL2 round 3, initial rate for Rebaudioside A conversion (Example 53); conditions: UGTSL2 round 3 clone lysates, 0.5 mM Rebaudioside A, 30° C., pH 7.2; baseline clone UGTSL2 defined as 100%
# Protocol: as §6
# (§9) Apart from the new variants for this round, both experiments were also performed with baseline clone, UGTSL2. The initial rates for the conversion of Rebaudioside A or Rebaudioside D for this baseline clone were defined as 100%.
# as §8
# [13] = Directed evolution of UGTSL2 round 3, initial rate for Rebaudioside D conversion (Example 53); conditions: UGTSL2 round 3 clones; specificity
# Protocol: In parallel 100 μL of fresh lysate was added to a solution of Rebaudioside D (final concentration 0.5 mM), MgCl2 (final concentration 3 mM) and UDP-Glucose (final concentration 2.5 mM) in 50 mM phosphate buffer pH 7.2. The reaction was allowed to run at 30° C. and samples were taken after 2, 4, 6 and 22 h. to determine the initial rates for Rebaudioside D conversion after HPLC analysis (CAD detection).
# as §9, §8
# [14] = 0.5 mM substrate, 2.5 mM UDP-Glucose, pH 7.2
# [15] = UGTSL2 round 1 clones, indication of specificity
molecule,measurement,setting,value
"UGT76G1: UDP-glucosyltransferase UGT76G1 [Stevia rebaudiana], Genbank AAR06912.1, SEQ ID NO:11 (protein, listed as Stevia rebaudiana) MENKTETTVRRRRRIILFPVPFQGHINPILQLANVLYSKGFSITIFHTNFNKPKTSNYPHFTFRFILDNDPQDERISNLPTHGPLAGMRIPIINEHGADELRRELELLMLASEEDEEVSCLITDALWYFAQSVADSLNLRRLVLMTSSLFNFHAHVSLPQFDELGYLDPDDKTRLEEQASGFPMLKVKDIKSAYSNWQILKEILGKMIKQTKASSGVIWNSFKELEESELETVIREIPAPSFLIPLPKHLTASSSSLLDHDRTVFQWLDQQPPSSVLYVSFGSTSEVDEKDFLEIARGLVDSKQSFLWVVRPGFVKGSTWVEPLPDGFLGERGRIVKWVPQQEVLAHGAIGAFWTHSGWNSTLESVCEGVPMIFSDFGLDQPLNARYMSDVLKVGVYLENGWERGEIANAIRRVMVDEEGEYIRQNARVLKQKADVSLMKGGSSYESLESLVSYISSL",conversion of stevioside to rebaudioside A,[1],almost complete conversion
same,conversion of rebaudioside D to rebaudioside M,[2],80%
same,conversion of Rebaudioside E to Rebaudioside D,[3],complete conversion
"UGTSL2: UDP-glucosyltransferase, Solanum lycopersicum, SEQ ID NO:9 (protein, listed as Solanum lycopersicum) MATNLRVLMFPWLAYGHISPFLNIAKQLADRGFLIYLCSTRINLESIIKKIPEKYADSIHLIELQLPELPELPPHYHTTNGLPPHLNPTLHKALKMSKPNFSRILQNLKPDLLIYDVLQPWAEHVANEQNIPAGKLLTSCAAVFSYFFSFRKNPGVEFPFPAIHLPEVEKVKIREILAKEPEEGGRLDEGNKQMMLMCTSRTIEAKYIDYCTELCNWKVVPVGPPFQDLITNDADNKELIDWLGTKHENSTVFVSFGSEYFLSKEDMEEVAFALELSNVNFIWVARFPKGEERNLEDALPKGFLERIGERGRVLDKFAPQPRILNHPSTGGFISHCGWNSAMESIDFGVPIIAMPIHNDQPINAKLMVELGVAVEIVRDDDGKIHRGEIAETLKSVVTGETGEILRAKVREISKNLKSIRDEEMDAVAEELIQLCRNSNKSK",Rebaudioside E formation,[4]; 0.5 mM Stevioside,50%
same,Stevioside conv. (reaction time),[4]; [14],77% (2 h.)
same,Rebaudioside E formation,[5]; 0.5 mM Rubusoside,55%
same,Rubusoside conv. (reaction time),[5]; [14],80% (2 h.)
same,Rebaudioside D formation,[6]; 0.5 mM Rebaudioside A,75%
same,Rebaudioside A conv. (reaction time),[6]; [14],78% (23 h.)
same,"LC-MS, peak area ratio (%): REb E",[7],52.88%
same,"LC-MS, peak area ratio (%): Reb D",[7],6.73%
same,"LC-MS, peak area ratio (%): Rub",[7],3.54%
same,"LC-MS, peak area ratio (%): Stev",[7],2.12%
same,"LC-MS, peak area ratio (%): Unknown peak #1 (MW804) RT 30.70 min",[7],12.02%
same,"LC-MS, peak area ratio (%): Unknown peak #2 (MW804) RT 49.50 min",[7],9.94%
same,"LC-MS, peak area ratio (%): Unknown peak #3 (MW804) RT 50.40 min",[7],12.77%
same,"LC-MS, peak area ratio (%): Reb D",[8],1.70%
same,"LC-MS, peak area ratio (%): Reb E",[8],42.56%
same,"LC-MS, peak area ratio (%): Stev",[8],20.01%
same,"LC-MS, peak area ratio (%): Unknown peak #1 (MW966) RT = 22.60 min",[8],4.48%
same,"LC-MS, peak area ratio (%): Unknown peak #2 (MW966) RT = 26.50 min",[8],5.56%
same,"LC-MS, peak area ratio (%): Unknown peak #3 (MW966) RT = 29.50 min",[8],25.70%
same,Normalized initial rate (0-4 h),"[9]; UGTSL2 round 1 clone lysates, 30° C., pH 7.2, HPLC (CAD), baseline clone UGTSL2 defined as 100%",100%
same,Reb D2 content at 50% UDP-Glc conversion,[9]; [15],12.5%
same,Reb M2 content at 100% UDP-Glc conversion,[9]; [15],100%
same,Normalized initial rate for conversion of Rebaudioside A,[10],100%
same,Ratio between initial rates for the conversion of Rebaudioside A and Rebaudioside D,[11],1.67
same,Normalized initial rate for conversion of Rebaudioside A,[12],100%
same,Ratio between initial rates for the conversion of Rebaudioside A and Rebaudioside D,[13],1.67
